From PMC10277282 come the findings set out here.

The target of the test is MHC II (mouse (endogenous in BMDM)) (UniProt P14434).
Chain of UniProt P14434 (P14434 24-256, chain 1 of 2): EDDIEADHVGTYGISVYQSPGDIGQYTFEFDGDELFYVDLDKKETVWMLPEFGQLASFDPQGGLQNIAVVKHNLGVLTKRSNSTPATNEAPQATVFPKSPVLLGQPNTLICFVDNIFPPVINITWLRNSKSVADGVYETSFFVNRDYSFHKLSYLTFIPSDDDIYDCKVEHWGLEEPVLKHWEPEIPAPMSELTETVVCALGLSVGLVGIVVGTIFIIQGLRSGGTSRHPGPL
Chain of UniProt P14434 (P14483 28-265, chain 2 of 2, further chain): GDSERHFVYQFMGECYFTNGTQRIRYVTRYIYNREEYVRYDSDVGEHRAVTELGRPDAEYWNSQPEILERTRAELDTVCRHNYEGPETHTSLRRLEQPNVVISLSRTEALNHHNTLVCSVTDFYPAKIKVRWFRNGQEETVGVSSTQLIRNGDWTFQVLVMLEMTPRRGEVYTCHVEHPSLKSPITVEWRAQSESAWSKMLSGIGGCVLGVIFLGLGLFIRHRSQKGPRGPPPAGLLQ

“soluble CD4 (ectodomain of CD4, D1-D4 domains) (from UniProt P06332 27-394) (domain or fragment)” showed a TLR4 hyperinflammation in vivo (LPS sepsis in mice); concentration of sCD4 needed for 50% inhibition of 125 nM and a TNF/IL-6 response of macrophages to LPS in vitro; concentration of sCD4 needed for 50% inhibition of TLR4 hyperinflammation of 25 nM.
